Measured values: paper PMC5531472, “A single nucleotide polymorphism causes enhanced radical oxygen species production by human aldehyde oxidase” (PLoS ONE, 2017)
Changes are numbered by the printed parent chain. Names and notes keep the numbering of the source.

B1: human aldehyde oxidase 1 variant H363Q (enzyme)
chain: MDRASELLFYVNGRKVIEKNVDPETMLLPYLRKKLRLTGTKYGCGGGGCGACTVMISRYNPITKRIRHHPANACLIPICSLYGAAVTTVEGIGSTHTRIHPVQERIAKCHGTQCGFCTPGMVMSIYTLLRNHPEPTLDQLTDALGGNLCRCTGYRPIIDACKTFCKTSGCCQSKENGVCCLDQGINGLPEFEEGSKTSPKLFAEEEFLPLDPTQELIFPPELMIMAEKQSQRTRVFGSERMMWFSPVTLKELLEFKFKYPQAPVIMGNTSVGPEVKFKGVFHPVIISPDRIEELSVVNHAYNGLTLGAGLSLAQVKDILADVVQKLPEEKTQMYHALLKHLGTLAGSQIRNMASLGGHIISRQPDSDLNPILAVGNCTLNLLSKEGKRQIPLNEQFLSKCPNADLKPQEILVSVNIPYSRKWEFVSAFRQAQRQENALAIVNSGMRVFFGEGDGIIRELCISYGGVGPATICAKNSCQKLIGRHWNEQMLDIACRLILNEVSLLGSAPGGKVEFKRTLIISFLFKFYLEVSQILKKMDPVHYPSLADKYESALEDLHSKHHCSTLKYQNIGPKQHPEDPIGHPIMHLSGVKHATGEAIYCDDMPLVDQELFLTFVTSSRAHAKIVSIDLSEALSMPGVVDIMTAEHLSDVNSFCFFTEAEKFLATDKVFCVGQLVCAVLADSEVQAKRAAKRVKIVYQDLEPLILTIEESIQHNSSFKPERKLEYGNVDEAFKVVDQILEGEIHMGGQEHFYMETQSMLVVPKGEDQEMDVYVSTQFPKYIQDIVASTLKLPANKVMCHVRRVGGAFGGKVLKTGIIAAVTAFAANKHGRAVRCVLERGEDMLITGGRHPYLGKYKAGFMNDGRILALDMEHYSNAGASLDESLFVIEMGLLKMDNAYKFPNLRCRGWACRTNLPSNTAFRGFGFPQAALITESCITEVAAKCGLSPEKVRIINMYKEIDQTPYKQEINAKNLIQCWRECMAMSSYSLRKVAVEKFNAENYWKKKGLAMVPLKFPVGLGSRAAGQAAALVHIYLDGSVLVTHGGIEMGQGVHTKMIQVVSRELRMPMSNVHLRGTSTETVPNANISGGSVVADLNGLAVKDACQTLLKRLEPIISKNPKGTWKDWAQTAFDESINLSAVGYFRGYESDMNWEKGEGQPFEYFVYGAACSEVEIDCLTGDHKNIRTDIVMDVGCSINPAIDIGQIEGAFIQGMGLYTIEELNYSPQGILHTRGPDQYKIPAICDMPTELHIALLPPSQNSNTLYSSKGLGESGVFLGCSVFFAIHDAVSAARQERGLHGPLTLNSPLTPEKIRMACEDKFTKMIPRDEPGSYVPWNVPI
notes: human aldehyde oxidase 1 (hAOX1), protein of 1338 amino acids, SNP-based variant H363Q; construct pAF7 derived from pTHcohAOX1; also called hAOX1 H363Q; pAF7; source: E. coli TP1000 (ΔmobAB), purified (nickel-nitrilotriacetic acid resin, size exclusion chromatography)
B2: human aldehyde oxidase 1 variant L438V (enzyme)
chain: B1 chain with Q363H, L438V
notes: human aldehyde oxidase 1 (hAOX1), protein of 1338 amino acids, SNP-based variant L438V; construct pAF10 derived from pTHcohAOX1; also called hAOX1 L438V; hAOX1-L438V; source: E. coli TP1000 (ΔmobAB), purified (nickel-nitrilotriacetic acid resin, size exclusion chromatography)
B3: human aldehyde oxidase 1 variant A437V (enzyme)
chain: B1 chain with Q363H, A437V
notes: human aldehyde oxidase 1 (hAOX1), protein of 1338 amino acids, SNP-based variant A437V; construct pAF9 derived from pTHcohAOX1; also called hAOX1 A437V; pAF9; source: E. coli TP1000 (ΔmobAB), purified (nickel-nitrilotriacetic acid resin, size exclusion chromatography)
B4: human aldehyde oxidase 1 variant R433P (enzyme)
chain: B1 chain with Q363H, R433P
notes: human aldehyde oxidase 1 (hAOX1), protein of 1338 amino acids, SNP-based variant R433P; construct pAF8 derived from pTHcohAOX1; also called hAOX1 R433P; pAF8; source: E. coli TP1000 (ΔmobAB), purified (nickel-nitrilotriacetic acid resin, size exclusion chromatography)
B5: human aldehyde oxidase 1 variant A439E (enzyme)
chain: B1 chain with Q363H, A439E
notes: human aldehyde oxidase 1 (hAOX1), protein of 1338 amino acids, SNP-based variant A439E; construct pAF11 derived from pTHcohAOX1; also called hAOX1 A439E; pAF11; source: E. coli TP1000 (ΔmobAB), purified (nickel-nitrilotriacetic acid resin, size exclusion chromatography)
B6: human aldehyde oxidase 1 variant R1231H (enzyme)
chain: B1 chain with Q363H, R1231H
notes: human aldehyde oxidase 1 (hAOX1), protein of 1338 amino acids, SNP-based variant R1231H; construct pAF12 derived from pTHcohAOX1; also called hAOX1 R1231H; pAF12; source: E. coli TP1000 (ΔmobAB), purified (nickel-nitrilotriacetic acid resin, size exclusion chromatography)

Target: the molecule itself
Assay: SEC; size exclusion chromatography on a Superdex 200 10/300 GL column after nickel-NTA purification; data not shown

Stoichiometry N, 2:
B1
B2
B3
B4
B5
B6
